Results taken from the supplement of paper PMC12764529.
± gives the half width of the 95% confidence interval.

What was measured:
[1] = folding stability dG unfold from trypsin proteolysis; higher = more stable
In short: (§1)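 Only designs with AlphaFold2 dimer inter-PAE above 15 were retained; each was a mini-protein under 80 residues with no cysteine, in a PA-tagged cDNA display construct. After digestion with trypsin and chymotrypsin and sequencing, K50 was inferred by Bayesian fitting of counts, and unfolding free energy was derived per protease or combined against a sequence-predicted unfolded-state K50 and a shared folded-state K50.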

[2] = folding stability dG unfold from chymotrypsin proteolysis; higher = more stable
In short: as §1

[3] = folding stability dG unfold (combined trypsin and chymotrypsin); higher = more stable
In short: as §1

Row | Sequence | folding stability dG unfold [1] [kJ/mol] | folding stability dG unfold [2] [kJ/mol] | folding stability dG unfold [3] [kJ/mol]
1 | SAMKIYTLPDGSRLIVIPDPYSDSLSVLLVTRSPDGTYHVTLIRYHPNGEKETFTRTGDLETAIRELLSSAG [r14_179_TrMRF] | 14.9 ± 0.322 | 15.01 ± 0.117 | 15.4 ± 0.381
2 | SAMKKITLDVYRPPDKLLVTVSFPETGKTVTLPFTSEEALREEIVKKLGLSPEELEIVDRKEKELSPELLSA [r9_909_JUSTAS] | 0.811 ± 0.226 | 2.61 ± 0.31 | 1.92 ± 0.544
3 | SAMKKVEIEIEVVEVDGELYILIKIKAETPEEVKEAAEKLLKELGLPPEAEVEVVEKDGEVYILIRLKPSAG [r14_804_TrROS_Hall] | 12.9 ± 0.343 | 18.9 ± 0.209 | 17.4 ± 0.544
4 | SAMKLEAPVVLDGKPVEVEFDAEPFEAPDGDVYYLVPLKVTFPDGRTYTARLRLKPGGKIVSVELLSDESAG [r14_341_TrMRF] | 8.09 ± 0.117 | 5.5 ± 0.795 | 7.42 ± 0.255
5 | SAMKLPPGVEAEVLEVTVDEEVTITIKLEDETVVIVNEKTGEVTVIKPGETVTITMKPGEKLRIIVIKPSAG [r14_385_TrROS_Hall] | 13.4 ± 1.17 | 6.91 ± 0.197 | 10.8 ± 1
6 | SAMKLTVSSSSPEEAQAQAEALKAQLRAELAAAGHPGAEVPVEITVTAVPPPVPVDVADPTSDRWSPTPSAG [r14_475_JUSTAS] | 3.36 ± 0.138 | -2.9 ± 0.753 | 1.65 ± 0.293
7 | SAMKNMTPEEVAKLIEEEIRKLYPNAEVKVEVLDAPEDYLVLKVHVTVIEPEEEGEIREFPFLVVIDLSSAG [r14_187_TrMRF] | 14.5 ± 0.628 | 13.9 ± 0.259 | 13.9 ± 0.377
8 | SAMKTETITVPGLKIEVTENKDGKKTIKITAATPEQAEEWLKKNPELRKLIEELEKAGYKVEITVLPPPSAG [r14_873_TrROS_Hall] | 14.2 ± 0.711 | 11.8 ± 0.213 | 12.6 ± 0.205
9 | SAMKVEPFTFKVTFKVPVLNPETGEATEEGVEAEVVVYRSDDGTLYVVAFVKFENGKTAVFPFTIDKDGSAG [r14_50_TrMRF] | 13.4 ± 0.418 | 15.82 ± 0.121 | 15 ± 0.268
10 | SAMLGAEELVRRIAEEIERRLGVPAGFDVPVRVYRPEDALVIDAYIVARGPDGEPLGERRITLVLRPEDSAG [r14_708_TrMRF] | 8.1 ± 0.134 | 14.6 ± 0.213 | 12.3 ± 0.46
11 | SAMLSPAEIKRPRLLEIIETIKKLGNFSVDIKRLPGDGDVKVKIELDPNKIEEAAKITGIPLSEIKKLVSAG [r14_688_JUSTAS] | 3.86 ± 0.628 | 3.13 ± 0.418 | 2.81 ± 1.3
12 | SAMLVITRPDGRPYLVRLKVDKVEPSPDGTLITVEFTLELFSPDGTPETFKGTLIFDPKTGKLVLKIDPSAG [r14_789_TrMRF] | 11.9 ± 0.234 | 15.52 ± 0.0586 | 14.3 ± 0.314
13 | SAMLVVELEVDLPELKYMTPEEAEEIAEALAVEAAKELFPESDVKVKEVVVEPEPETGKLKVTVVLENESAG [r14_310_TrMRF] | 9.11 ± 0.544 | 10.5 ± 0.201 | 10.3 ± 0.339
14 | SAMNLKTFKIEVPDGKIFTIPPNYKAEIVEYDPEKGVVTIKLTAYETNPLKEVEKKEFSFKFKFLEEFPSAG [r14_927_TrMRF] | 4.939 ± 0.046 | 6.8 ± 0.343 | 6.12 ± 0.36
15 | SAMNTRTVTLTIERPPGSPETLEAVRARLAALGFTVTSESEEVLPDESLTRVTLTVEDPGVPETLLALLSAG [r14_956_JUSTAS] | 6.92 ± 0.0879 | 8.51 ± 0.238 | 8.01 ± 0.251
16 | SAMPIDITVEGVERPPDSVVVHLRLDPSVPSDLAVTVKVRGADGTVLEVPAEDRTATLRVPSSDVVVDLSAG [r14_350_JUSTAS] | 1.62 ± 0.46 | 3.82 ± 1 | 3.26 ± 0.669
17 | SAMPLLVKVTFYPKDPVTGIPSEEIEEKEVPDIEEAIKEVKKKLPKDNSAKIEVLDENGKLLKTIDLNLSAG [r14_234_JUSTAS] | 3.02 ± 0.121 | 3.7 ± 0.46 | 3.53 ± 0.502
18 | SAMPVLVVIKRTVVLPRPGEELAKYEDPDGKVRRRVVVETLVVEVNPEDLPELVEFFKSLGIDEISVFGSAG [r14_509_TrMRF] | 9.13 ± 0.163 | 9.3 ± 0.13 | 8.92 ± 0.46
19 | SAMRFVVRVEGDLEEVERALREEFDFEMEAEREEDGRLVVVVEAEPEELERLVEALERLPDFPVEIEPESAG [r14_521_TrMRF] | 4.23 ± 0.113 | 2.99 ± 0.418 | 3.89 ± 0.259
20 | SAMRIRIEVETRTGPDGRKYVVVRIRDEKTGEELELVFESREEAEEAAKALAEELKKAGYEIEVEIRPPSAG [r14_263_TrROS_Hall] | 21.9 ± 1.97 | 21.8 ± 0.837 | 21.8 ± 0.795
21 | SAMSAEELAERLRERLKKLAEEEGLEVEITVTVEENEDGSLTVTITVKSEEEAERIKEKLPEGVKVEKKSAG [r14_491_TrROS_Hall] | 5.98 ± 0.226 | 9.91 ± 0.418 | 8.96 ± 0.879

Row | Sequence | folding stability dG unfold [1] [kJ/mol] | folding stability dG unfold [2] [kJ/mol] | folding stability dG unfold [3] [kJ/mol]
22 | SAMTIKIEVINEKGEKIEITIPVKKEDLEKLKEEIEKELKKLAEEKGEKVKVEIVEVDENGYLKIRVYKSAG [r14_622_TrROS_Hall] | 11.5 ± 0.837 | 10.6 ± 0.247 | 11.4 ± 0.879
23 | SAMTITVVADSAEEAERAARELAERLREALRELGIEGAEIEIKVTVLPAPPPERVLVRDPETDEWKEVPSAG [r14_475_TrROS_Hall] | 0.771 ± 0.586 | 4.93 ± 0.13 | 4.1 ± 0.46
24 | SAMTIVIRLPPPPPPLTAEELAELLGAEVTEIRVERNEDGELVVTITVREDMSEEQRRRLLELLRERAESAG [r14_421_TrROS_Hall] | 18.1 ± 0.293 | 16 ± 0.201 | 16.8 ± 0.314
25 | SAMTKLVEFDSEEEYEAAVKAAAAAGESVLARLKDPSGTYTVVEVEVDPETGTVTVKKTEKVPVDGSLGSAG [r14_455_JUSTAS] | 2.6 ± 0.0753 | 5.73 ± 0.113 | 4.78 ± 0.176
26 | SAMTLEEAKKKGLVVIRVKIEVTLPNGEKREFERVIVAESLEEALEALREELEREGYKVEIVEIEIEKLSAG [r14_854_TrROS_Hall] | 11.5 ± 0.669 | 6.31 ± 0.46 | 8.55 ± 0.879
27 | SAMTLTVRVKATPEQLKEALEEETGAKVTIEEEEDGVLTITVEVSEEEREKLAEALKKLPGLEIEIEEESAG [r14_521_TrROS_Hall] | 8.13 ± 0.28 | 7.91 ± 0.109 | 7.93 ± 0.381
28 | SAMTPEEIKKKVEELLKELAKELNAEVTSVKVDKETKTITVTVKVKLPNGETKTLTLKFTIDKDGKITFSAG [r14_183_TrROS_Hall] | 15.4 ± 0.502 | 18.8 ± 0.331 | 18.1 ± 0.586
29 | SAMTPEELAARLAEALRREAEEAGLEIVDVRVEYDEETDTVTVEVVVRNKETGELVTRRVEIRSLEELLSAG [r14_409_TrROS_Hall] | 18.9 ± 0.586 | 13.5 ± 0.247 | 16.7 ± 0.418
30 | SAMTVTITLPPSISPEEAKAALEAAFPGEDIQVTTTTDPNAGTLTVTVTFSSPEDAARAAALLAEVRAASAG [r14_443_JUSTAS] | 12 ± 0.192 | 19.6 ± 0.28 | 18.1 ± 0.322
31 | SAMVIEIEIPSEELLKKLEELLPPGARIKKVEIVKENGKVKIIVELEPGMSEEEKERIKKKIEELLKEESAG [r14_306_TrROS_Hall] | 20.6 ± 1.92 | 15 ± 1.67 | > 25.1
32 | SAMVLDVSELTKKAIEELKKKNPKPLSPEEIVELGKKVAAEVAEKLGIPLKEIKVEPTGKHPKAVAELPSAG [r14_147_TrMRF] | 2.21 ± 0.402 | 3.51 ± 0.247 | 1.64 ± 2.18
33 | SAMVTIDYETLKELYEAGDPAKVEEILKKAYEEDPNKTITVIVPEDEKYKNLVLEAAKKMGLPITITGPSAG [r14_236_JUSTAS] | 10.3 ± 0.285 | 12.5 ± 0.213 | 11.9 ± 0.305
34 | SAMYLIKITIYNEETGEKIAELTLEVEEEDLEELLEEIRKKLNLPPGAKIKVEIVPLEPVVLPDGKLLKSAG [r14_297_TrROS_Hall] | 3.03 ± 0.502 | 10.6 ± 0.837 | 7.09 ± 1.13
35 | SAMYTLRTISYDPNTGVRKLELTVDPAHPDRPVPEAVTQAVADAYAAQGWSVTVTRHPDGSVVIDVPVPSAG [r14_865_JUSTAS] | 7.69 ± 0.13 | 7.76 ± 0.113 | 7.85 ± 0.092
36 | SAMYVYRARVEVRGPDGELLAEEEIVAESPEELKVAVLERFGLKESEIVRLEVEPVIPLEEFLELLEKGSAG [r14_852_TrMRF] | 8.59 ± 0.176 | 10.4 ± 0.285 | 10 ± 0.46
37 | SAPDAKVEFNPKLVRKGDELLLLVEVKLSPDVDEVVVEIEVTGPDGSPFKVEAVQFPETGTVLVKAVLPASA [r9_159_TrMRF] | 5.55 ± 0.326 | 8.55 ± 0.255 | 7.32 ± 0.393
38 | SAPDVVVVPIKIPPGEMSPSDMIEMIEQAFDQFNWPITPDRIEKLVDKAMKNGDSIWAVIRYLREEGWLSAG [r14_364_TrROS] | 11 ± 0.205 | 12.64 ± 0.0879 | 12 ± 0.318
39 | SAPFQIKEITVNPKDGEAEINFPLENLPPPWMIHIFDKDKGKTQWIPPGGEIEIRAPEGPVKIMIFWRDSAG [r14_134_TrROS] | 5.33 ± 0.502 | 4.1 ± 1.88 | 4.87 ± 1.05
40 | SAPKIKEIKEFDPETKKILIKVETPEGEKEIPIPAGGNMTVEEAIEKVKEFLEKELPEGVELEVEEITISAG [r14_422_TrMRF] | 2.07 ± 0.502 | 5.65 ± 0.418 | 4.19 ± 0.711
41 | SAPKVISATVTYNPATGKVTVTVTLEDADGPVTVTYTFDGDGNVPVTVYDTRTTKPLGTITVPADQLNLSAG [r14_608_TrMRF] | 4.43 ± 0.335 | 5.06 ± 0.962 | 4.75 ± 0.753
